Results as given in the supplement of paper PMC10065799, “High-throughput profiling of sequence recognition by tyrosine kinases and SH2 domains using bacterial peptide display” (eLife, 2023).

Experiments:
Fes = Fes (UniProt P07332); assay: phosphorylation enrichment, bacterial display (enrichment ratio); higher = better substrate or ligand; peptides without Tyr show the background
Fyn = Fyn (UniProt P06241); assay: as above
FGFR3 = FGFR3 (UniProt P22607); assay: as above
MERTK = MERTK (UniProt Q12866); assay: as above
EPHB2 = EPHB2 (UniProt P29323); assay: as above
FGFR1 = FGFR1 (UniProt P11362); assay: as above
AncSZ = assay: as above
Fer (mouse) = assay: as above
Jak2 = Jak2 (UniProt O60674); assay: as above
EPHB1 = EPHB1 (UniProt P54762); assay: as above
c-Src = assay: as above
c-Abl (mouse) = assay: as above
Hck = Hck (UniProt P08631); assay: as above
SHP2-C SH2 = assay: SH2 binding enrichment of the phosphorylated peptide, bacterial display (enrichment ratio); higher = better substrate or ligand; peptides without Tyr show the background
Grb2 SH2 = Grb2 SH2 (UniProt P62993); assay: as above
c-Src SH2 = assay: as above
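Throughout, for SH2 binding enrichment of the phosphorylated peptide, bacterial display: peptide library displayed on the E. coli surface as eCPX fusions, selected cells deep-sequenced, score is each peptide's frequency after selection divided by its frequency in the input.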
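Throughout, for phosphorylation enrichment, bacterial display: 11-residue human phosphosite peptides and single-mutation variants displayed on the E. coli surface, counted by deep sequencing, each peptide's frequency after selection divided by its frequency in the unselected input library; frequency after pTyr selection over input frequency; kinase dosed for 20-30% of maximal phosphorylation in three min.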

Sequence of Jak2 (O60674 whole entry, looked up): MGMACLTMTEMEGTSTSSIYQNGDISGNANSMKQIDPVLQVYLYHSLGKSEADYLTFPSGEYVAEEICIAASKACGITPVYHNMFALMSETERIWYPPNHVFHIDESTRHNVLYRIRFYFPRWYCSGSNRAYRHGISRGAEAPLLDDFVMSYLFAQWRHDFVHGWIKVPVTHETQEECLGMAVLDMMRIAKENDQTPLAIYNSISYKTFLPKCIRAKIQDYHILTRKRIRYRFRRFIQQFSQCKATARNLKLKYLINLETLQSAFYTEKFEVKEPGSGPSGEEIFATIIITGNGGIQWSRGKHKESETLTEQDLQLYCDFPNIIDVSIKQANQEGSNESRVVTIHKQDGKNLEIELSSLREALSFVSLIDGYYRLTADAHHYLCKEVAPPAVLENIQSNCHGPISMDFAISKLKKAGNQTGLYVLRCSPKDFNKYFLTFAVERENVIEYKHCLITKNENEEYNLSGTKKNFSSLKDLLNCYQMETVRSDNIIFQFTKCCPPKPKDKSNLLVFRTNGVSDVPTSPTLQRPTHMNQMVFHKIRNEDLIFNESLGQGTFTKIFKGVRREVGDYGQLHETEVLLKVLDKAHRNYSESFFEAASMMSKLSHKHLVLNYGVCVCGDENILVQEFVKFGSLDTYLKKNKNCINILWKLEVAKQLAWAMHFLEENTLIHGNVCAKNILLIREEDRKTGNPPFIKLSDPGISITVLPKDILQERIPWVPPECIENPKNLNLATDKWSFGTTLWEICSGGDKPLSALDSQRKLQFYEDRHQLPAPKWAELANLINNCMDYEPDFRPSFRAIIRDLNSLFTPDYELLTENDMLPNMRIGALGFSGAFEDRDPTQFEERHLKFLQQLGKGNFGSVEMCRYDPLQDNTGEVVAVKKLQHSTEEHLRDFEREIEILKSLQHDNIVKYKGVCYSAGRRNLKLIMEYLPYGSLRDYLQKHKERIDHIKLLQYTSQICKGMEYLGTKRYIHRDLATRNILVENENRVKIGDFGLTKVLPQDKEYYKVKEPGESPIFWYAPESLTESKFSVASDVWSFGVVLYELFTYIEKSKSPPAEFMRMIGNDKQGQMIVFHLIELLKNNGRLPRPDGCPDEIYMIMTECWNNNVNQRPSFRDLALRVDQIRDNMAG
Sequence of Fyn (P06241 whole entry, looked up): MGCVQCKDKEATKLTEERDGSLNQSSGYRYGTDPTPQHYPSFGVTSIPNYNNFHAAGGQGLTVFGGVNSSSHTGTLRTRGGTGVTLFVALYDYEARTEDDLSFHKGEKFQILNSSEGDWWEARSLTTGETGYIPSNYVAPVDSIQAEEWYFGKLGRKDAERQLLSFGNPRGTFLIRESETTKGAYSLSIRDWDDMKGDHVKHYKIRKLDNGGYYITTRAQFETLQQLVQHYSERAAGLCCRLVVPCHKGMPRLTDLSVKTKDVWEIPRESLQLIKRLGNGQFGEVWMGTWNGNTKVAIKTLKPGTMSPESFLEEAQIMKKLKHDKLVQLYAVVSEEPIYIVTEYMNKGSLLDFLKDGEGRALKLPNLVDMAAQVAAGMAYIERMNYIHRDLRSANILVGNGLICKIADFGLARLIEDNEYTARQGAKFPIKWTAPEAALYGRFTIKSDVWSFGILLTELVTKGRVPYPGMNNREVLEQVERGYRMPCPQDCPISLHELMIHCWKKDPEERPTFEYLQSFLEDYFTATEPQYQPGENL
Sequence of Fes (P07332 whole entry, looked up): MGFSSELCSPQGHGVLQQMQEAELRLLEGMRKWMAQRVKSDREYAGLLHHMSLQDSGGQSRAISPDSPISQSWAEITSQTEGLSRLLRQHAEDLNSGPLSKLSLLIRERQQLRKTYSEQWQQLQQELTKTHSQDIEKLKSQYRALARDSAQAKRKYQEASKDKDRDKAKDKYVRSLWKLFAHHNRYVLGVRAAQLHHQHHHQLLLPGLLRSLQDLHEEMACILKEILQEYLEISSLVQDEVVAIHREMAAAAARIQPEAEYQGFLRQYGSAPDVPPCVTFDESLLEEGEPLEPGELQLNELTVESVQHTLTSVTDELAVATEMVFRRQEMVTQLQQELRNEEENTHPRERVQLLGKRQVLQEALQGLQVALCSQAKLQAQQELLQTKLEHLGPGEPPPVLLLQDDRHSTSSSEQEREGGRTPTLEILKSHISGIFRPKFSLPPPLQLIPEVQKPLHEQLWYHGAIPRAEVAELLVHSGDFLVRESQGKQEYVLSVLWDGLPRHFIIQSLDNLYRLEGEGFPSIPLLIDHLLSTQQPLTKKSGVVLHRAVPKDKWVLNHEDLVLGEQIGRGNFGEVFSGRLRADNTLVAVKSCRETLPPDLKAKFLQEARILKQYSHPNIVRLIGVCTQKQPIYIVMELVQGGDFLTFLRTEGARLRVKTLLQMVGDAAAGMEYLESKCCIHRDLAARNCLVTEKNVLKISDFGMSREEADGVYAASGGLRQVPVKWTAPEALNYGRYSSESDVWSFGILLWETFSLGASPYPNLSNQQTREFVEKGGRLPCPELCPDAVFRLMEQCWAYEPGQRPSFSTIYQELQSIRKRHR
Sequence of EPHB1 (P54762 whole entry, looked up): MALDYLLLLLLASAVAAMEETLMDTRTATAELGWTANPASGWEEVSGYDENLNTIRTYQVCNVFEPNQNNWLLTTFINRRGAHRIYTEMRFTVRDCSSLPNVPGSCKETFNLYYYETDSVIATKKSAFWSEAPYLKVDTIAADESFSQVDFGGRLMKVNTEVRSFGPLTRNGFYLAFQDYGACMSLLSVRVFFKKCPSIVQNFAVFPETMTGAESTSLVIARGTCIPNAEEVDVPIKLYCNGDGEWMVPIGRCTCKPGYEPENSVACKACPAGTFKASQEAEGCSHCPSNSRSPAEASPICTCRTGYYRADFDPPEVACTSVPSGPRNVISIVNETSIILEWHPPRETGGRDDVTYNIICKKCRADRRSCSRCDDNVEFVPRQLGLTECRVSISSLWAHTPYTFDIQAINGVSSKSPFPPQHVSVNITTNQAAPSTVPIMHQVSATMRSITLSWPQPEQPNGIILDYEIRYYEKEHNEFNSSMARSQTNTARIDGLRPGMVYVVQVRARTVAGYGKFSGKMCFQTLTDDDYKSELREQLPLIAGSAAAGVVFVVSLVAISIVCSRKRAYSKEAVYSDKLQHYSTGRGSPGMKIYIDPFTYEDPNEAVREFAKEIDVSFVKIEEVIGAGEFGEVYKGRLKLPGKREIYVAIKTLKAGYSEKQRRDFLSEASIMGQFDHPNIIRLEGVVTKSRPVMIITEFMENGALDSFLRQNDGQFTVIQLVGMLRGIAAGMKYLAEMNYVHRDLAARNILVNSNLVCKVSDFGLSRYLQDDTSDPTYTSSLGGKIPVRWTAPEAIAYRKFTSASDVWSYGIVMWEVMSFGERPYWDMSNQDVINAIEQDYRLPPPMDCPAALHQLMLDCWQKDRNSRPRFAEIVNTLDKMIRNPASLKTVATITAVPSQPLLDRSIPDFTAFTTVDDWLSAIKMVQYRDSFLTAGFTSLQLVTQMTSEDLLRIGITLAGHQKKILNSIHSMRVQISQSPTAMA
Sequence of FGFR3 (P22607 whole entry, looked up): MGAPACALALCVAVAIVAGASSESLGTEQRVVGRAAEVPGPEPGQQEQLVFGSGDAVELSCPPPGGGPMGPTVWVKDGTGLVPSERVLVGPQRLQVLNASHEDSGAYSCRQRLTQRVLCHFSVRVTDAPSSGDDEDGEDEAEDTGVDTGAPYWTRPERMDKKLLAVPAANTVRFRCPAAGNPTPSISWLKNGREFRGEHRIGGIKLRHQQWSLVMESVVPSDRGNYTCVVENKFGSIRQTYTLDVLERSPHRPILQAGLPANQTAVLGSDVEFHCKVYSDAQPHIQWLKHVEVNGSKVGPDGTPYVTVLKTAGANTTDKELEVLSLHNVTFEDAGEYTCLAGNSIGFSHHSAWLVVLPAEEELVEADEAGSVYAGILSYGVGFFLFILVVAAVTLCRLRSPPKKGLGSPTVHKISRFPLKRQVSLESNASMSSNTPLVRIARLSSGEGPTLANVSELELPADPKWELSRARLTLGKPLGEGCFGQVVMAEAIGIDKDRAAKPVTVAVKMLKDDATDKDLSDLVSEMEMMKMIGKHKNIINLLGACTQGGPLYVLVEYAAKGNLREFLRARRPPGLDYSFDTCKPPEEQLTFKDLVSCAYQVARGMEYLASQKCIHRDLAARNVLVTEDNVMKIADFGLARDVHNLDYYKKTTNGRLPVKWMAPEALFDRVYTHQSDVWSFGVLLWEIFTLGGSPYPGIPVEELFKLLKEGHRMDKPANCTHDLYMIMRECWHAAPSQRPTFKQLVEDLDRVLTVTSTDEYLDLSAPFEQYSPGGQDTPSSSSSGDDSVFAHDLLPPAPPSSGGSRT
Sequence of FGFR1 (P11362 whole entry, looked up): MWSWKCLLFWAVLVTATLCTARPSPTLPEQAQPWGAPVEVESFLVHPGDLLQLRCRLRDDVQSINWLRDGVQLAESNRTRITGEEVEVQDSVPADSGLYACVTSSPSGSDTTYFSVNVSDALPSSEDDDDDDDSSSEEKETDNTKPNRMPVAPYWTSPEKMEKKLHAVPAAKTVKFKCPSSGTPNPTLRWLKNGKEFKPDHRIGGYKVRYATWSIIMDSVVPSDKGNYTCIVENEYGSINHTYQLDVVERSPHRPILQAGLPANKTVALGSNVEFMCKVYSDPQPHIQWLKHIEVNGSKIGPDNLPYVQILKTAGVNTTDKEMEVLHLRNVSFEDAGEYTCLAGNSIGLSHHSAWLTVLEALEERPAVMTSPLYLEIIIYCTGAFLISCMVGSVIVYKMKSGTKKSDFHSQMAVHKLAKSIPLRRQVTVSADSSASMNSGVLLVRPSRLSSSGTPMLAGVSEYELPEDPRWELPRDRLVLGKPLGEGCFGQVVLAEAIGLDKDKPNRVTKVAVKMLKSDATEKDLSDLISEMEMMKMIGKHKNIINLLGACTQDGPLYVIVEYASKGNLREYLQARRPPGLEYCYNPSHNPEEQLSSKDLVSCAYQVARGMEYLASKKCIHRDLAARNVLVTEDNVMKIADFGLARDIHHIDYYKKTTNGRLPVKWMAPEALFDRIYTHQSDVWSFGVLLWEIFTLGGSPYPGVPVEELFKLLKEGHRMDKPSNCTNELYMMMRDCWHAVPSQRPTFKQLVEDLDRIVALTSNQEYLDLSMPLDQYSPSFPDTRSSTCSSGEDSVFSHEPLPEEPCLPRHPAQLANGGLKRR

Sequence | phosphorylation enrichment (Fes) | phosphorylation enrichment (Fyn) | phosphorylation enrichment (FGFR3) | phosphorylation enrichment (MERTK) | phosphorylation enrichment (EPHB2) | phosphorylation enrichment (FGFR1) | phosphorylation enrichment (AncSZ) | phosphorylation enrichment (Fer (mouse)) | phosphorylation enrichment (Jak2) | phosphorylation enrichment (EPHB1) | phosphorylation enrichment (c-Src) | phosphorylation enrichment (c-Abl (mouse)) | phosphorylation enrichment (Hck) | SH2 binding enrichment (SHP2-C SH2) | SH2 binding enrichment (Grb2 SH2) | SH2 binding enrichment (c-Src SH2)
SIKDKYVTALF [KCNH2_Y611_YF] | 0.846 | 0.465 | 0.488 | 0.471 | 0.5 | 0.525 | 0.684 | 0.441 | 0.742 | 0.449 | 0.502 | 0.668 | 0.498 | 0.693 | 0.8 | 0.433
SIKHKYVTALF [KCNH2_Y611_D609H_YF] | 0.622 | 0.377 | 0.511 | 0.4 | 0.474 | 0.354 | 0.674 | 0.416 | 0.694 | 0.471 | 0.402 | 0.524 | 0.419 | 0.901 | 0.78 | 0.473
SISYDYCRVPM [BST2_Y8_T4I] | 1.17 | 0.965 | 5.46 | 2.98 | 9.95 | 7.84 | 3.91 | 3.87 | 3.05 | 11 | 1.17 | 1.03 | 2.62 | 0.705 | 1.01 | 0.831
SIVEDYRPPFY [ACVRL1_Y421_G416S] | 1.25 | 0.483 | 0.743 | 0.496 | 0.551 | 0.552 | 1.22 | 0.804 | 1.1 | 0.785 | 0.472 | 0.995 | 0.427 | 0.622 | 0.599 | 0.462
SKGFAYVHFDS [PABPC5_Y149_YF] | 0.871 | 0.381 | 0.584 | 0.378 | 0.466 | 0.393 | 0.814 | 0.408 | 0.832 | 0.477 | 0.314 | 0.681 | 0.378 | 1.29 | 1.02 | 1.96
SKLTIYDARPS [MTM1_Y277] | 1.17 | 2.4 | 0.751 | 0.825 | 0.737 | 0.606 | 0.779 | 0.484 | 0.655 | 0.629 | 2.05 | 0.593 | 7.23 | 0.595 | 0.792 | 0.466
SLEKGYELPDG [ACTC1_Y242_S241G] | 0.909 | 0.49 | 0.545 | 0.35 | 0.499 | 0.438 | 0.994 | 0.436 | 0.756 | 0.475 | 0.368 | 0.6 | 0.488 | 0.847 | 0.832 | 5.21
SLGKGYSVGGC [MC4R_Y35_D37V] | 0.898 | 0.432 | 0.627 | 0.354 | 0.501 | 0.456 | 0.724 | 0.484 | 0.846 | 0.523 | 0.384 | 0.593 | 0.434 | 0.867 | 0.888 | 0.517
SLIDGYFRLTE [JAK2_Y372_A377E_YF] | 1.08 | 0.456 | 0.715 | 0.542 | 0.436 | 0.553 | 1.07 | 0.545 | 4.29 | 0.571 | 0.446 | 0.867 | 0.442 | 6.41 | 0.784 | 1.85
SLIDGYYRLTE [JAK2_Y372_A377E] | 1.1 | 0.427 | 0.997 | 0.441 | 0.531 | 1.11 | 1.17 | 0.425 | 5.79 | 0.521 | 0.639 | 0.533 | 0.583 | 1.21 | 0.843 | 2.49
SLIERYEPSET [PLCD1_Y258] | 1.1 | 0.502 | 0.678 | 0.727 | 0.602 | 0.661 | 1.07 | 0.574 | 0.966 | 0.742 | 0.497 | 0.717 | 0.54 | 0.62 | 1 | 0.759
SMVVPYEPPEV [TP53_Y220_V216M] | 1.33 | 0.462 | 0.81 | 0.465 | 0.625 | 0.45 | 1.11 | 0.617 | 1.3 | 0.592 | 0.526 | 0.852 | 0.407 | 0.659 | 0.892 | 0.769
SNPAYYVLEGV [INPPL1_Y987_N982S] | 0.921 | 1.25 | 12.1 | 7.46 | 0.609 | 15.1 | 1 | 0.515 | 4 | 0.769 | 1.21 | 0.538 | 0.917 | 1.19 | 0.891 | 3.28
SNSAAYSGSVA [PDLIM5_Y382_T381A] | 0.566 | 0.404 | 0.421 | 0.381 | 0.393 | 0.33 | 0.512 | 0.343 | 0.636 | 0.398 | 0.409 | 0.697 | 0.354 | 0.559 | 0.774 | 0.481
SPFAVYRFFTF [RPGRIP1_Y826_YF] | 1.33 | 0.68 | 0.798 | 0.45 | 0.519 | 0.637 | 1.22 | 0.496 | 1.08 | 0.501 | 0.91 | 0.961 | 0.867 | 0.729 | 0.689 | 0.462
SPGGDYAAMGA [ERBB3_Y1276_G1271S] | 0.861 | 0.484 | 0.609 | 0.476 | 0.901 | 0.705 | 0.7 | 0.456 | 0.708 | 1.52 | 0.445 | 0.622 | 0.455 | 0.487 | 0.749 | 1.03
